Key:
Conditions in all cases: source organism: Rickettsia akari str. Hartford
HLA-B*53:01 = assay: IEDB peptide-MHC binding, purified MHC/competitive/fluorescence; filed as Kd, often an IC50 or EC50 that approximates it; ≥ and ≤ were set here for values at or beyond the usual limits of such assays
HLA-A*23:01 = assay: as above
HLA-B*46:01 = assay: as above
HLA-A*03:01 = assay: as above
HLA-B*57:01 = assay: as above
HLA-A*30:02 = assay: as above
HLA-B*40:01 = assay: as above
HLA-A*26:01 = assay: as above
HLA-B*27:03 = assay: as above
HLA-A*02:16 = assay: as above
HLA-B*39:01 = assay: as above
HLA-A*02:03 = assay: as above
HLA-A*29:02 = assay: as above
HLA-B*15:01 = assay: as above
HLA-A*68:02 = assay: as above
HLA-A*01:01 = assay: as above
HLA-A*02:01 = assay: as above
HLA-B*07:02 = assay: as above
HLA-A*66:01 = assay: as above
HLA-A*11:01 = assay: as above
HLA-A*30:01 = assay: as above
HLA-A*02:12 = assay: as above
HLA-A*02:19 = assay: as above
HLA-C*15:02 = assay: IEDB peptide-MHC binding, purified MHC/direct/fluorescence; filed as Kd, often an IC50 or EC50 that approximates it; ≥ and ≤ were set here for values at or beyond the usual limits of such assays

**Q.** FTARIIIFS was tested. Which Kd (HLA-B*53:01) did it give?
**A.** The Kd was at least 5 µM.

**Q.** What about the Kd (HLA-A*23:01) of the same sequence?
**A.** Its Kd is at least 20 µM.

**Q.** What about the Kd (HLA-B*46:01) of the same sequence?
**A.** Its Kd is at least 20 µM.

**Q.** And the Kd (HLA-A*03:01)?
**A.** The Kd was at least 20 µM.

**Q.** What about the Kd (HLA-B*57:01) of the same sequence?
**A.** Its Kd is at least 20 µM.

**Q.** And the Kd (HLA-A*30:02)?
**A.** Its Kd is at least 5 µM.

**Q.** What about the Kd (HLA-B*40:01) of the same sequence?
**A.** Its Kd is at least 5 µM.

**Q.** And the Kd (HLA-A*26:01)?
**A.** Its Kd is at least 20 µM.

**Q.** What about the Kd (HLA-B*27:03) of the same sequence?
**A.** Its Kd is at least 20 µM.

**Q.** What about the Kd (HLA-A*02:16) of the same sequence?
**A.** The Kd was at least 20 µM.

**Q.** And the Kd (HLA-B*39:01)?
**A.** Its Kd is at least 20 µM.

**Q.** What about the Kd (HLA-A*02:03) of the same sequence?
**A.** The Kd was at least 20 µM.

**Q.** What about the Kd (HLA-A*29:02) of the same sequence?
**A.** Its Kd is at least 20 µM.

**Q.** And the Kd (HLA-B*15:01)?
**A.** Its Kd is at least 20 µM.

**Q.** And the Kd (HLA-A*68:02)?
**A.** Its Kd is 0.0276 µM.

**Q.** What about the Kd (HLA-A*01:01) of the same sequence?
**A.** Its Kd is at least 5 µM.

**Q.** What about the Kd (HLA-A*02:01) of the same sequence?
**A.** The Kd was at least 20 µM.

**Q.** And the Kd (HLA-B*07:02)?
**A.** Its Kd is at least 5 µM.

**Q.** And the Kd (HLA-A*66:01)?
**A.** The Kd was 3 µM.

**Q.** And the Kd (HLA-A*11:01)?
**A.** The Kd was at least 5 µM.

**Q.** What about the Kd (HLA-A*30:01) of the same sequence?
**A.** The Kd was at least 5 µM.

**Q.** And the Kd (HLA-A*02:12)?
**A.** The Kd was at least 20 µM.

**Q.** What about the Kd (HLA-A*02:19) of the same sequence?
**A.** Its Kd is at least 20 µM.

**Q.** And the Kd (HLA-C*15:02)?
**A.** Its Kd is at least 20 µM.

From the Immune Epitope Database (IEDB)
